1 protein from patent publication US6146862A can be followed below.

For orientation: Km means the substrate concentration at which the rate is half of its maximum.

Substrate in this data set: NC(=O)C1=CN([C@@H]2O[C@H](COP(=O)(O)OP(=O)(O)OC[C@H]3O[C@@H](n4cnc5c(N)ncnc54)[C@H](O)[C@@H]3O)[C@@H](O)[C@H]2O)C=CC1
In words: purified protein, by the assay type. The conditions noted are these: other: recombinant enzyme purified from E. coli JM109/pSDE1, assay 50 mM Tris-HCl pH 8.5, 0.06 mM DCIP, 30° C.

B1: Bacillus stearothermophilus UK-563 thermostable diaphorase, recombinant (E. coli JM109/pSDE1), SEQ ID No.1 (Geobacillus stearothermophilus) (protein)
chain: MTNVLYITAHPHDDTQSYSMAVGKAFIDTYKQVHPDHEVIHLDLYKEYIPEIDVDVFSGWGKLRSGKSFEELSDEEKAKVGRMNELCEQFISADKYVFVTPMWNFSFPPVLKAYIDAVAVAGKTFKYTEQGPVGLLTDKKALHIQARGGFYSEGPAAEMEMGHRYLSVIMQFFGVPSFEGLFVEGHAAVPEKAEEIKANAIARAKDLAHTF
For B1, the Km turned out to be 500 µM.
